Test results reported in publication PMC10144703, “Molecular Mechanism of Sirtuin 1 Inhibition by Human Immunodeficiency Virus 1 Tat Protein” (Life, 2023).

Experiments:
Type in all cases: biochemical
[1] = biological target: T1, human Sirt5 (Homo sapiens, UniProt Q9NXA8); experiment: Continuous coupled enzymatic assay, Sirt5; details: 65 μM Tat-Cys^−, succinylated peptide at substrate Km, n = 3
T1 construct: Sirt5-(34-302) in pET-151/D-TOPO; made in house; host or cells: E. coli CodonPlus(DE3)
T1 sequence (Q9NXA8 34-302): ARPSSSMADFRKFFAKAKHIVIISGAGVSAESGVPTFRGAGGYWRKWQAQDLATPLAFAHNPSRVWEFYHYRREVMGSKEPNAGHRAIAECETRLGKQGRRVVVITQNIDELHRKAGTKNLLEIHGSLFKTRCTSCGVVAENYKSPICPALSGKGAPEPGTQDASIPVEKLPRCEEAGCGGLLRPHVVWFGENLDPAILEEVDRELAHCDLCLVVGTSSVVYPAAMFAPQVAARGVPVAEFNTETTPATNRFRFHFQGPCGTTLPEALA
From the text: (§1) A human mini-Sirt1 construct (aa 183-505-(GGGS)2-641-665), as described in [27], was generated in a modified pET-19b with a TEV cleavage site. This construct and human full-length Sirt1 (fl-Sirt1) in pET-15b, Sirt1-(183-664) and Sirt1-(214-664) in pET-15b, mini-Sirt1-∆SBD (aa 214-505-(GGGS)2-641-665) and mini-Sirt1-∆ESA (aa 183–505) in a modified pET-19b with TEV cleavage site, Sirt2-(43-356) in a modified pET-19b with a His6-Sumo tag, Sirt3-(93-399) in a modified pET-32a with Trx-His6 tag and TEV cleavage site, hSirt3-(118-399) in pVFT3S (Sungkyunkwan University, Seoul, Republic of Korea) with His6-Trx tag and TEV cleavage site, Sirt5-(34-302) in pET-151/D-TOPO, and Sirt6-(1-355) in pQE80L.1 were purified as described. […]
(§2) Continuous coupled enzymatic sirtuin activity assays were conducted as described. […] Reactions were monitored for 1 h at room temperature by absorption spectroscopy at 340 nm in a UV/vis plate reader (BioTek). The slope for the linear range (typically 5–25 min) was evaluated after background correction with measurements without NAD^+. Additional control reactions were run by either omitting enzyme or omitting peptide substrate to ensure that the signal measured reflects the NAD+-dependent deacetylation activity of the sirtuin.

[2] = biological target: T2, human Sirt6 (Homo sapiens, UniProt Q8N6T7); experiment: Continuous coupled enzymatic assay, Sirt6; details: 65 μM Tat-Cys^−, myristoylated peptide at substrate Km, n = 3
T2 construct: Sirt6-(1-355) in pQE80L.1; made in house; host or cells: E. coli CodonPlus(DE3)
T2 sequence (Q8N6T7 whole entry): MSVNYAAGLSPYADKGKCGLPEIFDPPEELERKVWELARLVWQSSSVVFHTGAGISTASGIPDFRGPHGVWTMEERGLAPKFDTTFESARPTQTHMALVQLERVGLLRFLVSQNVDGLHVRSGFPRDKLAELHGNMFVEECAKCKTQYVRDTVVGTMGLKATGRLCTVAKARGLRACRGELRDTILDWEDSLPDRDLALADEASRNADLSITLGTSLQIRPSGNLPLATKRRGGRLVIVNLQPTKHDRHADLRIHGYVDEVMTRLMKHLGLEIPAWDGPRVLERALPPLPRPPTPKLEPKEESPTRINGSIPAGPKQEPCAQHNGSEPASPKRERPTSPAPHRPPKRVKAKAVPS
From the text: as §1, §2

[3] = biological target: T3, human Sirt3 (Homo sapiens, UniProt Q9NTG7); experiment: Continuous coupled enzymatic assay, Sirt3; details: 65 μM Tat-Cys^−, acetylated peptide at substrate Km, n = 3
T3 construct: Sirt3-(93-399) in a modified pET-32a; Trx-His6 (cleaved yes); made in house; host or cells: E. coli CodonPlus(DE3)
T3 sequence (Q9NTG7 93-399): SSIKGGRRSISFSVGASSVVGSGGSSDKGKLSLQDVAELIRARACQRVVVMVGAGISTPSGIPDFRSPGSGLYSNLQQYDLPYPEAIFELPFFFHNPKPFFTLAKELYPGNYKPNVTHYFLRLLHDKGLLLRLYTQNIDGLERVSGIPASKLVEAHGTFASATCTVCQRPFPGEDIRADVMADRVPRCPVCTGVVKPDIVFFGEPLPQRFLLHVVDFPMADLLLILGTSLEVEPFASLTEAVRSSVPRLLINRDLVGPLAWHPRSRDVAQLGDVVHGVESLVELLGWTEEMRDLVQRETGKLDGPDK
From the text: as §1, §2

B1: Tat-Cys^−: Recombinant 86-residue HIV1 Zaire 2 Tat with C22S, C25A, C27A, C30S, C31A, C34S, and C37A (protein)
chain: MDPVDPNIEPWNHPGSQPKTASNRAHAKKSAYHSQVAFITKGLGISYGRKKRRQRRRPSQGGQTHQDPIPKQPSSQPRGDPTGPKE
B1 was tested, and the “inhibitory effect on Sirt5, continuous assay” value [1] was “no statistically significant effect was observed”, the “inhibitory effect on Sirt6, continuous assay” value [2] was “no statistically significant effect was observed” and the “inhibitory effect on Sirt3, continuous assay” value [3] was “pronounced inhibitory effects”.
